First the molecules themselves.
B2: M13-C06 antibody (full-length, IgG4 version not stated) (antibody, V domains shown)
VH: EVQLLESGGGLVQPGGSLRLSCAASGFTFSIYRMQWVRQAPGKGLEWVSGISPSGGTTWYADSVKGRFTISRDNSKNTLYLQMNSLRAEDTAVYYCARWSGGSGYAFDIWGQGTMVTVSS
VL: DIQMTQSPLSLSASVGDRVTITCQASRDIRNYLNWYQQKPGKAPKLLIYDASSLQTGVPSRFGGSGSGTDFSFTIGSLQPEDIATYYCQQFDSLPHTFGQGTKLEIK
notes: Fully human full-length antibody; In tr-FRET it carried a europium chelate (10.3:1 Eu:C06); also called M13-C06_Ab; Eu-C06
B3: 小鼠IGF-1R(1-903)-Fc (Fc fusion)
chain: not shown
notes: range 1-903; also called mIGF-1R-Fc; mIGF1R; not shown: C-terminal human IgG1-Fc tag

The target in assay [1] is T1, 人INSR(28-956)-His 10 (human, UniProt P06213 28-956).
T1 construct: range 28-956; Bought from R&D Systems; also called INSR-His 10; rh-INSR (R&D Systems #1544-IR)
T1 sequence (P06213 other isoform, or with tags, fused parts or gaps limits assumed): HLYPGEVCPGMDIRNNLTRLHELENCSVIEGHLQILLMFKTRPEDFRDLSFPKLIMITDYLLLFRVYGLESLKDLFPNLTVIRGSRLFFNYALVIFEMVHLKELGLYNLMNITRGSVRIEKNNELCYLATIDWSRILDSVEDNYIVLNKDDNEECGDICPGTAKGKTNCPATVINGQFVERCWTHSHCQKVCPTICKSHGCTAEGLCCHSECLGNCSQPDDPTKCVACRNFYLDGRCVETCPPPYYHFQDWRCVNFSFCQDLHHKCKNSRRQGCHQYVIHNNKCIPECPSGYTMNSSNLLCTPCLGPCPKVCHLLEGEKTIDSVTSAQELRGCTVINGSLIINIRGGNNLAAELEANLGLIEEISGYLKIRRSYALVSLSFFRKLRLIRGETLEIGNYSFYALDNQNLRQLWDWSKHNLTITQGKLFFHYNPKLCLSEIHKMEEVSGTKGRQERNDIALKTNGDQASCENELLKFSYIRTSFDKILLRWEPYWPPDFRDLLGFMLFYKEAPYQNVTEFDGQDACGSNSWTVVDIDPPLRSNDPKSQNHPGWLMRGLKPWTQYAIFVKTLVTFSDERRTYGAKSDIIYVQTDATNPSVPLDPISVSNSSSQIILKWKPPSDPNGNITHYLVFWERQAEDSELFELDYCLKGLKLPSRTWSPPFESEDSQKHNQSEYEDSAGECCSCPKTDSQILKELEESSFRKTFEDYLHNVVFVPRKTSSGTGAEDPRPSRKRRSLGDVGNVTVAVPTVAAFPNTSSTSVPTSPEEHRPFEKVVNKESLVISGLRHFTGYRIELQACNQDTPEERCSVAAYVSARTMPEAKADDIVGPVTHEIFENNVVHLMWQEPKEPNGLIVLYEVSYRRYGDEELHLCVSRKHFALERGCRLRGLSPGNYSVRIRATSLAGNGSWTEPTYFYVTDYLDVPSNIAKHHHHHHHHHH
Put plainly: ELISA on plates coated with rh-INSR. Background: ELISA stands for enzyme-linked immunosorbent assay.

Assay [2] has as its target B3. As to the kind of experiment: SPR, second run with 3 h dissociation.
The target in assay [3] is B3. Put plainly: SPR, receptor-Fc captured by anti-human IgG-Fc, Fab injected, 1:1 model (also printed as 89.1nM). In general terms: Surface plasmon resonance follows binding to a sensor surface in real time, without labels.
Assay [4] has as its target B3. As to the kind of experiment: SPR, receptor-Fc captured by anti-human IgG-Fc, Fab injected, 1:1 model.
Assay [5] deals with B3. Put plainly: SPR, compared with hIGF-1R-Fc.
For assay [6], the target named is T1, 人INSR(28-956)-His 10. As to the kind of experiment: tr-FRET competition (Eu-C06 / Cy5-hIGF-1R-His10).
The target of assay [7] is B2. Put plainly: tr-FRET competition against Cy5-IGF1R-His10 for Eu-C06.
Assay [8] addresses human IGF-1R expressed on cells (human). As to the kind of experiment: cell-based or functional assay.

Chain of 小鼠IGF-1R(1-903)-Fc (Q60751 31-933 limits assumed): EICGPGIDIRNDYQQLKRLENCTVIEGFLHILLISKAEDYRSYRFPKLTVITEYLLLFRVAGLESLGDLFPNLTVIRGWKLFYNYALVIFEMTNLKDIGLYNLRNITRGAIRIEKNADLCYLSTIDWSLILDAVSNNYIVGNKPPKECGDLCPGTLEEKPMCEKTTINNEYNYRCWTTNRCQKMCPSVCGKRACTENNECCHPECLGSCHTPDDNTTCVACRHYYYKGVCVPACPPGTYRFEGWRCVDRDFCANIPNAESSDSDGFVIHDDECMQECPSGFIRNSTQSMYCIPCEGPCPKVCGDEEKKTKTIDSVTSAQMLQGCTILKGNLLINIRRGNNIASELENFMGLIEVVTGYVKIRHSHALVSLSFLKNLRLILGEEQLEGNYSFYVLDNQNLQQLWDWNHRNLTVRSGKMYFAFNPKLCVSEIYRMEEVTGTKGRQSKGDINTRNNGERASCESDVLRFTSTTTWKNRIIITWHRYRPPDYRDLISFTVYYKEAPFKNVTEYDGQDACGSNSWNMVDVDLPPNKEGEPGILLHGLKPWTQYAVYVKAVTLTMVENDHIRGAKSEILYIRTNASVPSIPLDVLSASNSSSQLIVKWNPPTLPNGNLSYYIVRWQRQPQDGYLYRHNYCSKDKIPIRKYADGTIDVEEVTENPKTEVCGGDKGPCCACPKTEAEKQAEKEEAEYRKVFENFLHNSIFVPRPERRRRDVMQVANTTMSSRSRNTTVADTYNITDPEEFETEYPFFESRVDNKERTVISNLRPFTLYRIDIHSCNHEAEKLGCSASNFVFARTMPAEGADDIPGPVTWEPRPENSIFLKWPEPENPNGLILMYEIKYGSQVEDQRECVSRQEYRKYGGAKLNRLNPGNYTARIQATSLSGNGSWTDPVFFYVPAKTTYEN

B1: M13-C06 Fab (Fab, V domains shown)
VH: EVQLLESGGGLVQPGGSLRLSCAASGFTFSIYRMQWVRQAPGKGLEWVSGISPSGGTTWYADSVKGRFTISRDNSKNTLYLQMNSLRAEDTAVYYCARWSGGSGYAFDIWGQGTMVTVSS
VL: DIQMTQSPLSLSASVGDRVTITCQASRDIRNYLNWYQQKPGKAPKLLIYDASSLQTGVPSRFGGSGSGTDFSFTIGSLQPEDIATYYCQQFDSLPHTFGQGTKLEIK
notes: Human Fab from a phage library (VH3-23 germline framework, kappa light chain)
One may read the koff as the rate constant with which the complex falls apart. A high value points to a short-lived complex. In general, Kd refers to a measure of binding affinity in units of concentration. What is called kon is a measure of how fast the partners come together. Lower therefore signals slow association. For B1, in the assay with 人INSR(28-956)-His 10 [1], the binding result is “no binding (tested: 2μM)”. In the assay with 小鼠IGF-1R(1-903)-Fc [2], the koff came to 4.2e-05 s⁻¹. This molecule had a Kd with 小鼠IGF-1R(1-903)-Fc [3] of 89.1 nM. The molecule also came in with a kon with 小鼠IGF-1R(1-903)-Fc [4] of 471 M⁻¹ s⁻¹. Also, the “fold decrease of binding against human IGF-1R” value with 小鼠IGF-1R(1-903)-Fc [5] was 100 fold.
Take B2: the binding result with 人INSR(28-956)-His 10 [6] is recorded as “no binding (tested: IC50以上100倍的浓度)”.
In general, IC50 refers to the midpoint of a concentration-inhibition curve. As for B3, the IC50 in assay [7] was greater than 100 µg/mL.

B4: M12-E01 Fab (Fab, V domains shown)
VH: EVQLLESGGGLVQPGGSLRLSCAASGFTFSPYSMLWVRQAPGKGLEWVSSIGSSGGSTRYADSVKGRFTISRDNSKNTLYLQMNSLRAEDTAMYYCARVRGILHYDILIGRNLYYYYMDVWGKGTTVTVSS
VL: QYELTQPPSVSEAPRQRVTISCSGSSSNIGNNAINWYQQLPGKPPKLLIYYDDLLPSGVSDRFSGSKSGTSGSLAISGLQSEDEADYYCAAWDDNLNGVIFGGGTKLTVL
notes: Human Fab from a phage library (VH3-23, lambda light chain)
As to B4, the binding result with 人INSR(28-956)-His 10 [1] is given as “no binding (tested: 2μM)”.

B5: M14-G11.G4.P (antibody, human IgG4, V domains shown, not shown: a dimerising Fc or GST)
VH: EVQLLESGGGLVQPGGSLRLSCAASGFTFSNYPMYWVRQAPGKGLEWVSRISSSGGRTVYADSVKGRFTISRDNSKNTLYLQMNSLRAEDTAVYYCARDRWSRSAAEYGLGGYWGQGTLVTVSS
VL: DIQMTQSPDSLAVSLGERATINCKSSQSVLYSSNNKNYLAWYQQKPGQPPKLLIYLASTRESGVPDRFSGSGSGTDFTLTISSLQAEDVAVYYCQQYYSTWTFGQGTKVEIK
As for B5, the “inhibition of IGF-1- and IGF-2-mediated IGF-1R phosphorylation in MCF-7 cells, EC50” value in assay [8] was less than 1 nM.

B6: M14-B01 Fab (Fab, V domains shown)
VH: EVQLLESGGGLVQPGGSLRLSCAASGFTFSNYHMAWVRQAPGKGLEWVSVISPTGGRTTYADSVKGRFTISRDNSKNTLYLQMNSLRAEDTATYYCARAGYSYGYGYFDYWGQGTLVTVSS
VL: DIQMTQFPATLSVSPGERATLSCRASQSVMRNLAWYQQKPGQPPRLLIYGASKRATGIPARFSGSGSGTAFTLTISNLEPEDFAVYYCHQRSTWPLGTFGPGTKLEAK
notes: Human Fab from a phage library (VH3-23, kappa)
Take B6: the binding result with 人INSR(28-956)-His 10 [1] is “no binding (tested: 2μM)”.

The record behind these values is patent CN101415728A (dated 2009).
